System: chk2, endogenous (HEK 293 and MCF-7 cell extracts)
Sequence (chain, as listed by the source): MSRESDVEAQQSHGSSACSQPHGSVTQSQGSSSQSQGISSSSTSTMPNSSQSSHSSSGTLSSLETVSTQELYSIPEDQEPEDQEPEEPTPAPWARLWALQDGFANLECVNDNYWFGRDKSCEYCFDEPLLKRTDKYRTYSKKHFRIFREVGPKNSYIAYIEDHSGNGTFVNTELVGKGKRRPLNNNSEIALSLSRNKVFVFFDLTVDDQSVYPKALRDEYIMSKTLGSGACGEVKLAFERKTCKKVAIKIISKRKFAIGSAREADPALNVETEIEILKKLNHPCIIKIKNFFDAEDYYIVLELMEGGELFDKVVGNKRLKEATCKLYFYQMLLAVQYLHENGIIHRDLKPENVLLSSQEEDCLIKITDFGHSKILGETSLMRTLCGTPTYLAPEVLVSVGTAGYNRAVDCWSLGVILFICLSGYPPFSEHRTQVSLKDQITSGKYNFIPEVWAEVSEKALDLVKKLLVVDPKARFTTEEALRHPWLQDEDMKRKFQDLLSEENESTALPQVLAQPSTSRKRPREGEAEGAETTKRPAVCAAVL

EDD protein, full length (aa 1-2799)
CHK2 kinase activity towards a GST-cdc25C substrate post-IR in the presence and absence of EDD: activation of CHK2 was delayed in cells lacking EDD and these cells were impaired in their ability to reach maximal CHK2 kinase activity
DNA damage-induced phosphorylation of CHK2 on T68 after EDD depletion by RNA interference: considerably diminished compared to control cells

From patent US20060147922
